The values that follow come from patent publication US6869778.

B1: wild type human t-PA, two-chain form (protein)
chain 1: SYQVICRDEKTQMIYQQHQSWLRPVLRSNRVEYCWCNSGRAQCHSVPVKSCSEPRCFNGGTCQQALYFSDFVCQCPEGFAGKCCEIDTRATCYEDQGISYRGTWSTAESGAECTNWNSSALAQKPYSGRRPDAIRLGLGNHNYCRNPDRDSKPWCYVFKAGKYSSEFCSTPACSEGNSDCYFGNGSAYRGTHSLTESGASCLPWNSMILIGKVYTAQNPSAQALGLGKHNYCRNPDGDAKPWCHVLKNRRLTWEYCDVPSCSTCGLRQYSQPQFR
chain 2: IKGGLFADIASHPWQAAIFAKHRRSPGERFLCGGILISSCWILSAAHCFQERFPPHHLTVILGRTYRVVPGEEEQKFEVEKYIVHKEFDDDTYDNDIALLQLKSDSSRCAQESSVVRTVCLPPADLQLPDWTECELSGYGKHEALSPFYSERLKEAHVRLYPSSRCTSQHLLNRTVTDNMLCAGDTRSGGPQANLHDACQGDSGGPLVCLNDGRMTLVGIISWGLGCGQKDVPGVYTKVTNYLDWIRDNMRP
B2: t-PA/K429Y, two-chain form (protein)
chain 1: B1 chain 1
chain 2: B1 chain 2 with K154Y
B3: t-PA/R275E, single-chain form (protein)
chain: SYQVICRDEKTQMIYQQHQSWLRPVLRSNRVEYCWCNSGRAQCHSVPVKSCSEPRCFNGGTCQQALYFSDFVCQCPEGFAGKCCEIDTRATCYEDQGISYRGTWSTAESGAECTNWNSSALAQKPYSGRRPDAIRLGLGNHNYCRNPDRDSKPWCYVFKAGKYSSEFCSTPACSEGNSDCYFGNGSAYRGTHSLTESGASCLPWNSMILIGKVYTAQNPSAQALGLGKHNYCRNPDGDAKPWCHVLKNRRLTWEYCDVPSCSTCGLRQYSQPQFEIKGGLFADIASHPWQAAIFAKHRRSPGERFLCGGILISSCWILSAAHCFQERFPPHHLTVILGRTYRVVPGEEEQKFEVEKYIVHKEFDDDTYDNDIALLQLKSDSSRCAQESSVVRTVCLPPADLQLPDWTECELSGYGKHEALSPFYSERLKEAHVRLYPSSRCTSQHLLNRTVTDNMLCAGDTRSGGPQANLHDACQGDSGGPLVCLNDGRMTLVGIISWGLGCGQKDVPGVYTKVTNYLDWIRDNMRP
B4: t-PA/H417E, two-chain form (protein)
chain 1: B1 chain 1
chain 2: B1 chain 2 with H142E
B5: t-PA/H417D, two-chain form (protein)
chain 1: B1 chain 1
chain 2: B1 chain 2 with H142D
B6: t-PA/R275E,H417D, single-chain form (protein)
chain: B3 chain with H417D
B7: t-PA/R275E,H417E, single-chain form (protein)
chain: B3 chain with H417E

Changes are numbered by the printed parent chain. Names may count otherwise. “And” between values parts separate entries of the source, which are not always exact repeats. Equal entries are not always repeated.

In the first data set the target is stimulatory thirteen amino acid peptide P368.
On to B1, for which the “stimulation of plasminogen activation by co-factor (indirect chromogenic assay)” value (shortened to “stimulation of plasminogen activation”) is “strongly stimulated”.
The same measure, in the same setting: in the case of B2 it was “strongly stimulated”.
B3: the “stimulation of plasminogen activation” value is “moderately”.

A further data set has as its target T1, lys-plasminogen, P00747.
T1 chain: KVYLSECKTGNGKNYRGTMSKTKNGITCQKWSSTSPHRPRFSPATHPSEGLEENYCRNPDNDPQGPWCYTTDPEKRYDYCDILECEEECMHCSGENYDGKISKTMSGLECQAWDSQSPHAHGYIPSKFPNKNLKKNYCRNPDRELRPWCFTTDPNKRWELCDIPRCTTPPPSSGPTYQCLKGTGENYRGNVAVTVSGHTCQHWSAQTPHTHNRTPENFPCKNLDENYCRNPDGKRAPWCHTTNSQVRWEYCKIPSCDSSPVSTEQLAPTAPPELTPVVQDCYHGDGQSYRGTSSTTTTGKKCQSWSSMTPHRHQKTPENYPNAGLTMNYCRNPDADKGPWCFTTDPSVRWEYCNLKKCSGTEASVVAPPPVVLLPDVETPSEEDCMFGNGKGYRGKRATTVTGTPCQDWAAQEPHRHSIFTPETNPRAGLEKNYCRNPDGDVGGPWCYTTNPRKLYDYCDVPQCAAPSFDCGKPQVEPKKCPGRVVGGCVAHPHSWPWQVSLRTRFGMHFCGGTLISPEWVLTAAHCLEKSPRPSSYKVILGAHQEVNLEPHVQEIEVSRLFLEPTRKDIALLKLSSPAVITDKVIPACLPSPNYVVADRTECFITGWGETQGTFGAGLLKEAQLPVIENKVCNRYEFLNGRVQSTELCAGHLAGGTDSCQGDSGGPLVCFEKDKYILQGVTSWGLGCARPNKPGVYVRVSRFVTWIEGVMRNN
In the case of B1, the Kcat of plasminogen activation in the absence of a cofactor was 0.093 s⁻¹ and 0.16 s⁻¹; the Kcat of plasminogen activation in the presence of fibrin was 0.11 s⁻¹ and 0.08 s⁻¹; the Kcat/Km of plasminogen activation in the absence of a cofactor is 14000 M⁻¹ s⁻¹ and 16000 M⁻¹ s⁻¹; the Kcat/Km of plasminogen activation in the presence of fibrin is 6.5e+06 M⁻¹ s⁻¹ and 4e+06 M⁻¹ s⁻¹. Further, the Km of plasminogen activation in the absence of a cofactor is 6.7 µM and 10 µM; the Km of plasminogen activation in the presence of fibrin was 0.017 µM and 0.02 µM.
In the case of B4, the Kcat of plasminogen activation in the absence of a cofactor is 0.099 s⁻¹, the Kcat of plasminogen activation in the presence of fibrin turned out to be 0.1 s⁻¹, the Kcat/Km of plasminogen activation in the absence of a cofactor was determined as 11000 M⁻¹ s⁻¹ and the Kcat/Km of plasminogen activation in the presence of fibrin was 4.5e+06 M⁻¹ s⁻¹. Also, the Km of plasminogen activation in the absence of a cofactor worked out at 8.7 µM and the Km of plasminogen activation in the presence of fibrin is 0.022 µM.
For the protein B5, the Kcat of plasminogen activation in the absence of a cofactor was 0.11 s⁻¹, the Kcat of plasminogen activation in the presence of fibrin is 0.11 s⁻¹, the Kcat/Km of plasminogen activation in the absence of a cofactor worked out at 16000 M⁻¹ s⁻¹ and the Kcat/Km of plasminogen activation in the presence of fibrin was found to be 4.6e+06 M⁻¹ s⁻¹. The Km of plasminogen activation in the absence of a cofactor amounted to 6.8 µM and the Km of plasminogen activation in the presence of fibrin turned out to be 0.024 µM.
Regarding B2, the Kcat of plasminogen activation in the absence of a cofactor worked out at 0.18 s⁻¹, the Kcat of plasminogen activation in the presence of fibrin was 0.08 s⁻¹, the Kcat/Km of plasminogen activation in the absence of a cofactor turned out to be 13000 M⁻¹ s⁻¹ and the Kcat/Km of plasminogen activation in the presence of fibrin worked out at 3e+06 M⁻¹ s⁻¹. In addition, the Km of plasminogen activation in the absence of a cofactor is 14 µM; the Km of plasminogen activation in the presence of fibrin turned out to be 0.03 µM; the “fold difference of activity toward plasminogen without co-factor, against two-chain t-PA” value is reported as “differed by a factor of only 1.2”; the “percent of the activity of two-chain t-PA toward plasminogen in the presence of fibrin” value is “approximately 75% of the activity of two-chain t-PA”.
Take B3: the Kcat of plasminogen activation in the absence of a cofactor is 0.014 s⁻¹ and 0.038 s⁻¹; the Kcat of plasminogen activation in the presence of fibrin was 0.16 s⁻¹ and 0.1 s⁻¹; the Kcat/Km of plasminogen activation in the absence of a cofactor was 1500 M⁻¹ s⁻¹ and 1300 M⁻¹ s⁻¹; the Kcat/Km of plasminogen activation in the presence of fibrin was 9.4e+06 M⁻¹ s⁻¹ and 5e+06 M⁻¹ s⁻¹. The Km of plasminogen activation in the presence of fibrin is 0.017 µM and 0.02 µM.
As for B6, the Kcat of plasminogen activation in the absence of a cofactor is 0.001 s⁻¹, the Kcat of plasminogen activation in the presence of fibrin is 0.23 s⁻¹, the Kcat/Km of plasminogen activation in the absence of a cofactor was 110 M⁻¹ s⁻¹ and the Kcat/Km of plasminogen activation in the presence of fibrin stood at 5.3e+06 M⁻¹ s⁻¹. Further, the Km of plasminogen activation in the absence of a cofactor was 9.4 µM; the Km of plasminogen activation in the presence of fibrin was 0.043 µM; the “fold reduction of activity toward plasminogen without co-factor, against single chain t-PA/R275E” value is given as “reduced by a factor of approximately 14 or 6, respectively”.
For B7, the Kcat of plasminogen activation in the absence of a cofactor is 0.002 s⁻¹, the Kcat of plasminogen activation in the presence of fibrin stood at 0.17 s⁻¹, the Kcat/Km of plasminogen activation in the absence of a cofactor was 240 M⁻¹ s⁻¹ and the Kcat/Km of plasminogen activation in the presence of fibrin turned out to be 6.1e+06 M⁻¹ s⁻¹. The Km of plasminogen activation in the absence of a cofactor was 8.5 µM; the Km of plasminogen activation in the presence of fibrin was 0.028 µM; the “fold reduction of activity toward plasminogen without co-factor, against single chain t-PA/R275E” value was “reduced by a factor of approximately 14 or 6, respectively”.

The next data set deals with soluble fibrin monomers (DESAFIB).
Consider B1, for which the Fold stimulation of kcat/Km by fibrin was 460 fold and 250 fold; the “fibrin selectivity factor (specific activity in the presence of fibrin over that in the presence of fibrinogen)” value (shortened to “fibrin selectivity factor”) came to 1.5 for two-chain t-PA; the “stimulation of plasminogen activation” value is on record as “strongly stimulated”.
On to B4, for which the Fold stimulation of kcat/Km by fibrin turned out to be 410 fold.
On the same count and under the same terms, in the case of B5 it was 290 fold.
In the case of B2, the Fold stimulation of kcat/Km by fibrin was found to be 230 fold, the “fibrin selectivity factor” value is reported as 1.5 for two-chain t-PA/K429Y and the “stimulation of plasminogen activation” value is listed as “strongly stimulated”.
Regarding B3, the Fold stimulation of kcat/Km by fibrin is 6300 fold and 3800 fold; the “fibrin selectivity factor” value is 1.0 for single chain t-PA/R275E; the “stimulation of plasminogen activation” value is recorded as “stimulated strongly”.
As for B6, the Fold stimulation of kcat/Km by fibrin was 48200 fold.
The same measure, in the same setting: in the case of B7 it was 25400 fold.

The next data set concerns the target fibrinogen.
For the protein B1, the “stimulation of plasminogen activation” value is “strongly stimulated”.
In the case of B2, the “stimulation of plasminogen activation” value is on record as “strongly stimulated”.
Still for that read-out and setting: in the case of B3 it was “stimulated strongly”.
